Assays:
Details in all cases: remark: other sources report otherwise
[1] = biological target: T1, hCMV gH + gL + UL128 + UL130 + UL131A (co-expressed in HEK293T cells) (human cytomegalovirus), P12824; experiment: competitor: 6G4-biotin; cell staining
[2] = biological target: T1, hCMV gH + gL + UL128 + UL130 + UL131A …; experiment: competitor: 9I6-biotin; cell staining
[3] = biological target: T1, hCMV gH + gL + UL128 + UL130 + UL131A …; experiment: competitor: 2C12-biotin; cell staining
[4] = biological target: T1, hCMV gH + gL + UL128 + UL130 + UL131A …; experiment: competitor: 2F4-biotin; cell staining
[5] = biological target: T1, hCMV gH + gL + UL128 + UL130 + UL131A …; experiment: competitor: 1F11-biotin; cell staining
[6] = biological target: T1, hCMV gH + gL + UL128 + UL130 + UL131A …; experiment: competitor: 8J16-biotin; cell staining
[7] = biological target: T1, hCMV gH + gL + UL128 + UL130 + UL131A …; experiment: competitor: 4I22-biotin; cell staining
[8] = biological target: T1, hCMV gH + gL + UL128 + UL130 + UL131A …; experiment: competitor: 8C15-biotin; cell staining
[9] = biological target: T1, hCMV gH + gL + UL128 + UL130 + UL131A …; experiment: competitor: 8I21-biotin; cell staining
[10] = biological target: T1, hCMV gH + gL + UL128 + UL130 + UL131A …; experiment: competitor: 10F7-biotin; cell staining
[11] = biological target: T1, hCMV gH + gL + UL128 + UL130 + UL131A …; experiment: competitor: 5A2-biotin; cell staining
[12] = biological target: T1, hCMV gH + gL + UL128 + UL130 + UL131A …; experiment: competitor: 15D8-biotin; cell staining
[13] = biological target: T1, hCMV gH + gL + UL128 + UL130 + UL131A …; experiment: competitor: 4N10-biotin; cell staining

| Binder | Inhibition of binding (%) [1] [%] | Inhibition of binding (%) [2] [%] | Inhibition of binding (%) [3] [%] | Inhibition of binding (%) [4] [%] | Inhibition of binding (%) [5] [%] | Inhibition of binding (%) [6] [%] | Inhibition of binding (%) [7] [%] | Inhibition of binding (%) [8] [%] | Inhibition of binding (%) [9] [%] | Inhibition of binding (%) [10] [%] | Inhibition of binding (%) [11] [%] | Inhibition of binding (%) [12] [%] | Inhibition of binding (%) [13] [%] |
| --- | --- | --- | --- | --- | --- | --- | --- | --- | --- | --- | --- | --- | --- |
| 9I6 (antibody, V domains shown) VH: EVQLVQSGAEVKKPGESLKISCRESGDTFPAYWIAWVRQMPGKGLEWMGIIYPIDSETTYSPSFQGQVTISADKSINTAYLQWSSLKASDSAIYYCARGTSTGLREAFHIWGQGTMVTVSS VL: DVVMTQSPLSLAVTLGQPAYISCRSSQSLGYSDGNTYLNWFQQRPGQSPRRLIYEVSNRDSGVPDRFSGSGSGTDFTLKISRVEAEDVGTYYCMQGTHWPPMCSFGQGTKLEIK | 100 | 100 | 100 | 0 | 0 | 100 | 0 | 100 | 0 |  |  |  |  |
| 2C12 (antibody, V domains shown) VH: QITLRESGPTLVKPTQTLTLTCTFSGFSLNTNGVGVGWIRQPPGKALEWLALIYWNGNEGYSPSLKSRLTITKDTSKNQVVLTMTNMDPVDTATYYCVHWPQGLTTVTRLAFDIWGQGTMVTVSS VL: QSALTQPRSVSGSPGQSVTISCTGTTSDVGRYNFVSWYQQHPGKAPKLLMYDVSQRPSGVPSRFSGSKSGNTASLTISGLQAEDEAVFYCCSYAGGNFFSYVFGTGTKVTVL | 100 | 100 | 100 | 0 | 0 | 100 | 0 | 100 | 0 | 0 | 0 | 0 | 0 |

From patent US20170129940A1
